Assay [1] deals with human CLDN18.2 (human). Nature of the assay: cell-based or functional assay.
The target of assay [2] is T1, human CLDN18.2 (human).
T1 construct: On HEK293-CLDN18.2 and MKN45-CLDN18.2 transfected cells and on the gastric cell lines NUGC4 and KATOIII (endogenous); also called Claudin18.2; claudin 18 splice variant 2
Nature of the assay: KinExA on gastric cell lines.

B1: 18B10-HaLa (antibody, human IgG1, kappa, V domains shown)
VH: QVQLVQSGAEVKKPGASVKVSCKASGYTFTGYNMNWVRQAPGQGLEWMGNIDPYYGGTSYNQKFKGRVTMTIDKSTSTVYMELSSLRSEDTAVYYCARMYHGNAFDYWGQGTTVTVSS
VL: DIVMTQSPDSLAVSLGERATINCKSSQSLLNSGNLKNYLTWYQQKPGQPPKLLIYWASTRKSGVPDRFSGSGSGTDFTLTISSLQAEDVAVYYCQNDYSYPLTFGGGTKVEIKR
notes: humanized; variable regions fused with human IgG1 and human kappa constant regions; also called humanized 18B10 HaLa
Consider B1, for which, in the assay with human CLDN18.2 [1], the “ADCC EC50 on NUGC4 cells” value is about 0.59 µg/mL, the “ADCC reporter EC50” value is 0.05 µg/mL and the CDC activity was over 20 fold. In the assay with human CLDN18.2 [2], the “fold higher affinity than IMAB362” value was over 8 fold.

These data come from patent publication US20240307564A1 (SUZHOU TRANSCENTA THERAPEUTICS, published 2024).
